Reference: publication PMC10786891, “Massively parallel profiling of RNA-targeting CRISPR-Cas13d”

T1: EsCas13d, nuclease-dead (Eubacterium siraeum, UniProt B0MS50, R295A;H300A;R849A;H854A)
T1 sequence: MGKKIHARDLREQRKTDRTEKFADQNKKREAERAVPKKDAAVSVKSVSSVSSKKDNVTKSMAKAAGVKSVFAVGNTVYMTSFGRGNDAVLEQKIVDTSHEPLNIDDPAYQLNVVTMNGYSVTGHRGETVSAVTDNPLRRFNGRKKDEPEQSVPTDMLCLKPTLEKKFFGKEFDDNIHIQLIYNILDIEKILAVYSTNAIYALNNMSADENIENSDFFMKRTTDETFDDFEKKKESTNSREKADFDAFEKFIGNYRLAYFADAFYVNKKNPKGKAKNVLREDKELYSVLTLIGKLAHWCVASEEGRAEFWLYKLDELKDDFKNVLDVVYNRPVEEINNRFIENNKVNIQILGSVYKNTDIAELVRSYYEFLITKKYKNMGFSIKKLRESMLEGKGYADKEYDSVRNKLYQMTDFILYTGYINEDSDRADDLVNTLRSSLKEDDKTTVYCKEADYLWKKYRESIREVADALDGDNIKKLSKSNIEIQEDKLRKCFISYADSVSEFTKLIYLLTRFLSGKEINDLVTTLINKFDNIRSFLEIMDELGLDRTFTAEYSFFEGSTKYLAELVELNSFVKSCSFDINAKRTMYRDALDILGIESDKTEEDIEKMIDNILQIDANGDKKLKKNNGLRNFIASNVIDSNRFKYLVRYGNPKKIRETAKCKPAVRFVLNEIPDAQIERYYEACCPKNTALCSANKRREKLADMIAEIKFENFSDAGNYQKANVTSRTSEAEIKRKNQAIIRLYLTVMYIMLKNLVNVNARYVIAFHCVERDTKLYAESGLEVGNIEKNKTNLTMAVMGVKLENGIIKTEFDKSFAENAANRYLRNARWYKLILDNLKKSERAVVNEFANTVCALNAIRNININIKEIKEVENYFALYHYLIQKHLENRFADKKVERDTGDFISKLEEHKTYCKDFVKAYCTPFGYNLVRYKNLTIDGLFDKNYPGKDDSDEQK

B1: target 1 A9G,G17A (mixed)
RNA 1: CACCCGUGCAAAAAUGCAGGGGUCUAAAACUGAGCGGAUAACCUCUCUAUGG
RNA 2: GGGAAUGGAUCCACAUCUACGAAUUCGUACCAUAAAGAGGUUGUCCGCUCACCGAGAUCGGAAGAGCACACGU
B2: target 1 del4,del11 (mixed)
RNA 1: CACCCGUGCAAAAAUGCAGGGGUCUAAAACUGAGCGGAUAACCUCUCUAUGG
RNA 2: GGGAAUGGAUCCACAUCUACGAAUUCGUACCAUAGAGAGGUAUCCGUCACCGAGAUCGGAAGAGCACACGU
B3: target 1 insA 3' of 22,insA 3' of 3 (mixed)
RNA 1: CACCCGUGCAAAAAUGCAGGGGUCUAAAACUGAGCGGAUAACCUCUCUAUGG
RNA 2: GGGAAUGGAUCCACAUCUACGAAUUCGUACACAUAGAGAGGUUAUCCGCUACACCGAGAUCGGAAGAGCACACGU
B4: target 1 G13A,A18C (mixed)
RNA 1: CACCCGUGCAAAAAUGCAGGGGUCUAAAACUGAGCGGAUAACCUCUCUAUGG
RNA 2: GGGAAUGGAUCCACAUCUACGAAUUCGUACCAUCGAGAAGUUAUCCGCUCACCGAGAUCGGAAGAGCACACGU
B5: target 1 insA 3' of 4,insA 3' of 3 (mixed)
RNA 1: CACCCGUGCAAAAAUGCAGGGGUCUAAAACUGAGCGGAUAACCUCUCUAUGG
RNA 2: GGGAAUGGAUCCACAUCUACGAAUUCGUACCAUAGAGAGGUUAUCCGCAUACACCGAGAUCGGAAGAGCACACGU
B6: target 1 insC 3' of 12,insG 3' of 3 (mixed)
RNA 1: CACCCGUGCAAAAAUGCAGGGGUCUAAAACUGAGCGGAUAACCUCUCUAUGG
RNA 2: GGGAAUGGAUCCACAUCUACGAAUUCGUACCAUAGAGAGGCUUAUCCGCUGCACCGAGAUCGGAAGAGCACACGU
B7: target 1 U11G,G17A (mixed)
RNA 1: CACCCGUGCAAAAAUGCAGGGGUCUAAAACUGAGCGGAUAACCUCUCUAUGG
RNA 2: GGGAAUGGAUCCACAUCUACGAAUUCGUACCAUAAAGAGGGUAUCCGCUCACCGAGAUCGGAAGAGCACACGU
B8: target 1 insA 3' of 22,insG 3' of 9 (mixed)
RNA 1: CACCCGUGCAAAAAUGCAGGGGUCUAAAACUGAGCGGAUAACCUCUCUAUGG
RNA 2: GGGAAUGGAUCCACAUCUACGAAUUCGUACACAUAGAGAGGUUAGUCCGCUCACCGAGAUCGGAAGAGCACACGU
B9: target 1 insC 3' of 22,insA 3' of 5 (mixed)
RNA 1: CACCCGUGCAAAAAUGCAGGGGUCUAAAACUGAGCGGAUAACCUCUCUAUGG
RNA 2: GGGAAUGGAUCCACAUCUACGAAUUCGUACCCAUAGAGAGGUUAUCCGACUCACCGAGAUCGGAAGAGCACACGU
B10: target 1 insC 3' of 9,insU 3' of 2 (mixed)
RNA 1: CACCCGUGCAAAAAUGCAGGGGUCUAAAACUGAGCGGAUAACCUCUCUAUGG
RNA 2: GGGAAUGGAUCCACAUCUACGAAUUCGUACCAUAGAGAGGUUACUCCGCUCUACCGAGAUCGGAAGAGCACACGU
B11: target 1 insG 3' of 14,insC 3' of 13 (mixed)
RNA 1: CACCCGUGCAAAAAUGCAGGGGUCUAAAACUGAGCGGAUAACCUCUCUAUGG
RNA 2: GGGAAUGGAUCCACAUCUACGAAUUCGUACCAUAGAGAGGCGUUAUCCGCUCACCGAGAUCGGAAGAGCACACGU
B12: target 1 C2A,A16G (mixed)
RNA 1: CACCCGUGCAAAAAUGCAGGGGUCUAAAACUGAGCGGAUAACCUCUCUAUGG
RNA 2: GGGAAUGGAUCCACAUCUACGAAUUCGUACCAUAGGGAGGUUAUCCGCUAACCGAGAUCGGAAGAGCACACGU
B13: target 1 insC 3' of 12,insC 3' of 10 (mixed)
RNA 1: CACCCGUGCAAAAAUGCAGGGGUCUAAAACUGAGCGGAUAACCUCUCUAUGG
RNA 2: GGGAAUGGAUCCACAUCUACGAAUUCGUACCAUAGAGAGGCUUCAUCCGCUCACCGAGAUCGGAAGAGCACACGU

Each binder was assayed against T1, EsCas13d, nuclease-dead (assay: crRNA (strand 1, pre-loaded); Mg2+; 40 mM Tris-HCl pH 7.5, 150 mM NaCl, 6 mM MgCl2, 1 mM DTT, 0.1% Tween-20, 0.2 mg/ml BSA; 25 C; 10 min per concentration, then washed). Details: tags: His6-TwinStrep-SUMO cleaved; N-terminal SNAP kept (SNAP-Surface 488); label: 3' end held by stalled T7 RNA polymerase.
Binder B1 has a Kd of 57 ± 12 nM.
In the case of B2, the Kd is reported as 100 ± 40 nM.
B3 showed a Kd of 11.1 ± 0.6 nM.
In the case of B4, the Kd is reported as 51 ± 8 nM.
Work on B5 yielded a Kd of 7.01 ± 0.33 nM.
With B6 the Kd was 7.6 ± 0.7 nM.
With B7 the Kd was 74 ± 22 nM.
In the case of B8, the Kd is reported as 19.6 ± 1 nM.
Binder B9 has a Kd of 19 ± 4 nM.
For B10, the Kd was 13.9 ± 0.9 nM.
With B11 the Kd was 13.7 ± 0.9 nM.
Work on B12 yielded a Kd of 28.5 ± 2 nM.
In the case of B13, the Kd is reported as 23.9 ± 2.9 nM.
